From patent US20220002363A1, “COMPOSITIONS AND METHODS FOR TREATING PULMONARY DISEASE” (United States Government As Represented By The Department …, priority 2020, published 2022)
Residue numbers refer to the chain shown, from its start. One block for each molecule: values may come before it. Where a SMILES comes first, the peptide text is derived from it. The star is where a group is joined. Cbz = O=C(OCc1ccccc1)*; CH2F = FC*

Assays:
LA4 monolayer = conditions: LA4 cells; cited from earlier work
HPAEpiC = conditions: cited from earlier work
biotinylated WT-sFasL = target: T1, biotinylated WT-sFasL (human, UniProt P48023 103-281, biotinylated with EZ-Link Sulfo-NHS-LC-Biotin (sites not given)); assay: mixture captured on streptavidin-coated wells, detected with HRP anti-FLAG antibody
T1 construct: range 103-281; Same protein as WT-sFasL, chemically biotinylated; also called biotinylated wild type sFasL
T1 sequence (looked up): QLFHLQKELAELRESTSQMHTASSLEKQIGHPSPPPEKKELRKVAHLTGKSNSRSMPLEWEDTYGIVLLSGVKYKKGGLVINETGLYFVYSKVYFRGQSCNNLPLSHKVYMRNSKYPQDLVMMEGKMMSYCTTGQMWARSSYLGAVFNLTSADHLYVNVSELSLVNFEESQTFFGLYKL
Experimental: (§1) Serial 3-fold dilutions of FLAG tagged mut-sFasL were mixed with biotinylated WT sFasL (60 ng). The mixtures were incubated at room temperature for 15 minutes and applied to streptavidin-coated wells. FLAG tags were detected with HRP anti-FLAG mAb. There was a dose-dependent increase in FLAG signal in wells incubated with the biotinylated WT sFasL+ and the mut-sFasL-FLAG mixture, showing the formation of complexes of WT and mut-sFasL. […] Data shown as ratio of the absorbance at 450 nm of each experimental condition to that of media only. Data were generated from three separate experiments, each done in duplicate, and were analyzed by 2-way ANOVA with Dunnet's post hoc analysis; comparisons were made to 0 ng/mL for each condition. Each dot represents individual data, lines represent means±SD. *=P<0.05; **=P<0.01, ***P<0.001.
The mut-sFasL forms complexes with WT sFasL. In order to be active, sFasL must form trimers or higher order multimers. Therefore, it was tested whether the mut-sFasL forms complexes with WT-sFasL. The mixture was incubated in streptavidin-coated well to capture the biotinylated WT-sFasL. After washing unbound material, FLAG was detected using an anti-FLAG antibody, which would detect FLAG-tagged mut-sFasL complexed with biotinylated WT-sFasL. […]

recombinant human Fas = target: T2, recombinant human Fas (Homo sapiens, UniProt P25445); assay: Competition assay: binding of biotinylated WT sFasL to plate-coated recombinant human Fas; conditions: biotinylated WT-sFasL 70 ng/mL, Fas coated at 250 ng/mL, serial 3-fold dilutions
T2 construct: recombinant human soluble Fas receptors (PeproTech, Rocky Hill, N.J.); purchased PeproTech
T2 sequence (P25445 26-173 limits assumed): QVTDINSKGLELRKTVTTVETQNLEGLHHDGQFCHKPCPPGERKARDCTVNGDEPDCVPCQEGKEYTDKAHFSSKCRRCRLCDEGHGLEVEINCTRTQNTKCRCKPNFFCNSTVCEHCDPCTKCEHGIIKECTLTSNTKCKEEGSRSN
Experimental: The mixtures were incubated for 2 hours in 96-well plates pre-coated with recombinant hsFas (250 ng/ml). After washing unbound material, biotin was detected using HRP conjugated Streptavidin. […] The sFasL bound to Fas was detected using polyclonal anti-human FasL antibodies. […] Different molar ratios of the Fas-activating antibody CH-11 and mut-sFasL were added, and caspase 3/7 activity measured after 5 hours. […] Data represent the results from three separate experiments, each done in duplicate, and were analyzed by 2-way ANOVA with Sidak's post hoc analysis. […] Each dot represents individual data; lines represent means±SD. *=P<0.05; **=P<0.01, ***P<0.001.
Antibodies and Reagents. […] FLAG tagged mut-sFasL was detected using HRP anti-FLAG monoclonal antibody (Sigma-Aldrich, Cat #A85920). […]
WT-sFasL inhibition occurs prior to receptor binding. […] Recombinant human Fas at 250 ng/mL were coated and the binding of a fixed concentration of biotinylated WT-sFasL (70 ng/mL) were measured in the presence of serial 3-fold dilutions of either WT-sFasL or mut-sFasL. […] Serial dilutions of either WT-sFasL or mut-sFasL were incubated in wells coated with recombinant human Fas, 5 μg/mL, and after washing, detected sFasL bound to Fas using polyclonal anti-FasL antibodies. […]

biotinylated WT sFasL [1] = target: T3, biotinylated WT sFasL (Homo sapiens, UniProt P48023); assay: Complex formation of FLAG tagged mut-sFasL with biotinylated WT sFasL on streptavidin-coated wells; format: binding; conditions: fixed biotinylated WT sFasL (60 ng), increasing FLAG-tagged mut-sFasL
T3 construct: biotin (chemical label, EZ-Link Sulfo-NHS-LC-Biotin); made in house; host or cells: FreeStyle 293-F cells
T3 sequence (P48023 103-281): T1 sequence (looked up)
Experimental: as §1, with “mAb.” for “mAb. There was a dose-dependent increase in FLAG signal in wells incubated with the biotinylated WT sFasL+ and the mut-sFasL-FLAG mixture, showing the formation of complexes of WT and mut-sFasL.”
(§2) Antibodies and Reagents. To prepare immunoaffinity columns, mouse monoclonal anti-human FasL antibodies, clone 100419 (R&D System, Cat #MAB126, RRID:AB 2246667, Minneapolis, Minn.), were used. For the Fas-FasL binding assay, recombinant human soluble Fas receptors (PeproTech, Rocky Hill, N.J.) and biotinylated goat anti-human FasL antibodies (PeproTech Cat #500-P184bt-50 ug, RRID:AB 148184) were used. Mouse anti-human Fas (CD95) monoclonal IgM antibody, clone CH-11 and its isotype control antibody, clone 3D12, were obtained from MBL, Nagoya, Japan (MBL International Cat #SY-001, RRID:AB 591016 and Cat #M077-3, RRID:AB 593057, respectively). FLAG tagged mut-sFasL was detected using HRP anti-FLAG monoclonal antibody (Sigma-Aldrich, Cat #A85920). Unless otherwise indicated, the other chemicals were purchased from Sigma-Aldrich (St. Louis, Mo.).
(§3) Biotinylation of sFasL. Immunoaffinity purified WT-sFasL was biotinylated with No-Weight Format EZ-Link Sulfo-NHS-LC-Biotin (Pierce, Rockford, Ill., Cat #21327) following the manufacturer's instructions. To capture biotinylated WT-sFasL in the mixtures of biotinylated WT-sFasL and mut-sFasL-FLAG, Streptavidin-variant (Strep-Tactin XT) coated 96-well plates (iba, Gottingen, Germany, Cat #2-4101-001) were used.
(§4) The mut-sFasL forms complexes with WT sFasL. […] After washing unbound material, FLAG was detected using an anti-FLAG antibody, which would detect FLAG-tagged mut-sFasL complexed with biotinylated WT-sFasL.

biotinylated WT sFasL [2] = assay: as above; format: binding, human; conditions: FLAG-tagged mut-sFasL by itself
Experimental: as §1, with “mAb.” for “mAb. There was a dose-dependent increase in FLAG signal in wells incubated with the biotinylated WT sFasL+ and the mut-sFasL-FLAG mixture, showing the formation of complexes of WT and mut-sFasL.”
as §2, §3, §4

Molecule: CC(NC(=O)C(NC(=O)OCc1ccccc1)C(C)C)C(=O)NC(CC(=O)O)C(=O)CF (stereo not drawn) [zVAD] (Cbz-Val-Ala-Asp-CH2F; configuration not given here)
- reversal of cell death and monolayer permeability induced by Jo2 (LA4 monolayer): reversed cell death and monolayer permeability induced by Jo2

Molecule: COC(=O)CC[C@H](NC(=O)[C@H](CC(=O)OC)NC(=O)OCc1ccccc1)C(=O)N[C@H](C(=O)N[C@@H](CC(=O)OC)C(=O)CF)C(C)C [zDEVD.fmk, reference compound]
- reversal of sFasL effect on monolayer permeability and ZO-1/occludin expression (HPAEpiC; HPAEpiC, pretreatment): reversed the effect of sFasL on HPAEpiC monolayer permeability and ZO-1/occludin expression

- binding result (biotinylated WT-sFasL): binds
B1: FLAG tagged mut-sFasL (ligand, human, UniProt P48023 103-281, looked up)
chain: T1 sequence (looked up) with H4A, K7A, E8A, E11A, R13A, E14A, H20A, E26A
notes: range 103-281; C-terminal FLAG tag; also called mut-sFasL-FLAG; 8-mut sFasL-FLAG; not shown: FLAG tag fused in frame after amino acid 281

B2: WT-sFasL: wild type human soluble Fas ligand, amino acids 103 to 281, expressed in FreeStyle 293-F cells (protein, UniProt P48023 103-281, looked up, fragment)
chain: T1 sequence (looked up)
- caspase 3 induction (HPAEpiC; HPAEpiC exposed to long form of sFasL): induced caspase 3
- effect of increasing competitor concentration on binding of biotinylated WT-sFasL to Fas (recombinant human Fas): binding of biotinylated WT-sFasL to Fas decreased

- FLAG signal (complexes with WT sFasL) (biotinylated WT sFasL [1]): dose-dependent increase in FLAG signal
B3: mut-sFasL-FLAG: 8-mut sFasL with FLAG tag at the 3′-end of the 281th amino acid coding sequence (protein)
chain: T1 sequence (looked up) with H4A, K7A, E8A, E11A, R13A, E14A, H20A, E26A
modifications: left off: small tags and cut ends
- binding to streptavidin-coated plate without biotinylated WT sFasL (biotinylated WT sFasL [2]): did not bind to the streptavidin-coated plates
- binding to streptavidin-coated plate without biotinylated WT sFasL (biotinylated WT sFasL [2]; listed as FLAG-tagged mut-sFasL): did not bind to the plate, even at high concentrations
